Measured values from the supplement of paper PMC11865577.

Experiments:
Test in all cases: pull-down binding Z-score (relative to library population); higher = stronger binding
Settings in all cases: RNA library: Library-2
[1] = tested on: TO-3-N3-2 (biotin conjugate)
Method in brief: (§1)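 A heat-folded, dye-end-labelled (Cy5 or Cy3) RNA library (1 μg, phosphate/NaCl/KCl buffer) was exposed for 60 min at 25 °C to streptavidin beads holding 100 pmol of biotin-conjugated small molecule. RNA retained on the beads was eluted in hot SDS and hybridised to a DNA barcode microarray for 20 h at 55.5 °C. Binding scores were Z-scores against the library mean and standard deviation, calculated after subtracting beads alone and taking trimmed means of replicate probes.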

[2] = tested on: TO-N3-2 (biotin conjugate)
Method in brief: as §1

[3] = tested on: TO-3-N3 (biotin conjugate)
Method in brief: as §1

[4] = tested on: TO-N3 (biotin conjugate)
Method in brief: as §1

Sequence | pull-down binding Z-score [1] | pull-down binding Z-score [2] | pull-down binding Z-score [3] | pull-down binding Z-score [4]
CCCAAUGUUGUUAAACCACACGAAAAGGG [IAV_invivo_PA_3_Motif_15+IAV_invivo_PA_3_Motif_15] | 0.104 | -0.323 | 0.621 | 0.504
CCCAGAUGAAGGCACAGCUGGAGUGGAGUCCGCUGUUCUGAGGGGAUUCCUCAUUCUGGG [IAV_invivo_PB2_1_Motif_33+IAV_invivo_PB2_1_Motif_33] | 0.166 | 1.54 | -0.0325 | 0.671
CCCAGUGCGGGG [IAV_invivo_NP_5_Motif_5+IAV_invivo_NP_5_Motif_5] | -0.664 | -0.984 | -0.794 | -1.12
CCCAUCCGUGGGUGGG [IAV_invivo_NA_6_Motif_4+IAV_invivo_NA_6_Motif_4] | -0.239 | -0.95 | -0.525 | -0.897
CCCAUUGGAGAGUCCCCCAAAGGAGUGGAGGAAAGUUCCAUUGGG [IAV_invivo_PA_3_Motif_26+IAV_invivo_PA_3_Motif_26] | -0.0971 | 0.298 | -0.0565 | -0.0467
CCCCAAAAGAAAUUAUCUUCUUAGAGGG | -0.623 | 0.109 | -0.165 | 0.286
CCCCACUACAAUUGGGG [IAV_invivo_HA_4_Motif_4+IAV_invivo_HA_4_Motif_4] | -0.517 | -1.27 | 0.245 | -0.0989
CCCCAGGGAUGCAAAUAAGGGG [IAV_invivo_PB1_2_Motif_14+IAV_invivo_PB1_2_Motif_14] | 0.163 | 0.241 | 0.0403 | -0.0747
CCCCGGCCCCGGCCCCGGCCCCGG [r(CCCCGG)4] | 0.272 | 1.48 | 0.661 | 0.747
CCCGGAAAUAGCAGGAAGACCCAAAGUAAGAGAUCAAGCUGGG [IAV_invivo_HA_4_Motif_10+IAV_invivo_HA_4_Motif_10] | 0.505 | 0.433 | -0.309 | -0.157
CCCUAAGACUAAAAAUGUUACAAAAGAAAAUGACUCUAAAGAGGGUUUUUUCACUUACAUUUGUGGG [DMSMaPseq_invitro_SARS-CoV-2_Motif_371] | -0.271 | -0.589 | -0.845 | -1.03
CCCUGAACACAAUGACCAAAGAUGCUGAGAGAGGG [IAV_invivo_PB1_2_Motif_12+IAV_invivo_PB1_2_Motif_12] | 0.103 | 0.884 | -0.218 | 0.143
CCGAAAUUAUGUCUUUACUGGUUAUCGUGUAACUAAAAACAGUAAAGUACAAAUAGG | -0.0158 | -0.428 | -0.303 | -0.399
CCGAAUACCAUAAUGAAUCUGGCUUGAAAACCAUUCUUCGUAAGGGUGGUCGCACUAUUGCCUUUGG [DMSMaPseq_invitro_SARS-CoV-2_Multi_5_ComplexLevel_1] | -0.063 | 0.178 | -0.576 | -0.257
CCGGUAAGGACGAUACUUACCUG [U1snRNP5ss-23] | -0.205 | -0.181 | 0.363 | 0.0948
CCUAAACGAACAUGAAAUUUCUUGUUUUCUUAGG | -0.593 | -0.729 | -0.979 | -1.08

Sequence | pull-down binding Z-score [1] | pull-down binding Z-score [2] | pull-down binding Z-score [3] | pull-down binding Z-score [4]
CCUAAAGUGAAGUAUUUAUACUUUAUUAAAGG [DMSMaPseq_invitro_SARS-CoV-2_Motif_232] | -0.181 | -0.916 | 0.463 | 0.411
CCUAAUGGAUGG [IAV_invivo_NA_6_Motif_15+IAV_invivo_NA_6_Motif_15] | -0.746 | -0.501 | -0.555 | -0.777
CCUACUAAAAAGG | 0.2 | -0.0122 | 0.907 | 0.766
CCUACUGAUGG [IAV_invivo_PA_3_Motif_12+IAV_invivo_PA_3_Motif_12] | -0.207 | -0.632 | 0.0894 | -0.319
CCUAUACUGUUACUAGAUCAGGCAUUAGUGUCUGAUGUUGGUGAUAGUGCGG [DMSMaPseq_invitro_SARS-CoV-2_Motif_147] | 0.0824 | -0.184 | 0.0141 | 0.0062
CCUAUCAAUGG [IAV_invivo_PB2_1_Motif_26+IAV_invivo_PB2_1_Motif_26] | -0.212 | -0.376 | 0.191 | 0.11
CCUCGUACAAAAUUUUCAAGAUCGAAAAGGGG [IAV_invivo_NA_6_Motif_10+IAV_invivo_NA_6_Motif_10] | 0.159 | -0.605 | -0.278 | -0.362
CCUCUAAAAGCCCCAAAAGAAAUUAUCUUCUUAGAGGGAGAAACACUUCCCACAGAAGUGUUAACAGAGG | -0.139 | 0.314 | -0.556 | -0.162
CCUCUGACUAAGGGG [IAV_invivo_M1_M2_7_Motif_4+IAV_invivo_M1_M2_7_Motif_4] | -0.414 | -1.25 | -0.159 | -0.504
CCUCUUGAGUGCAUUAAAGACCUUCUAGCACGUGCUGGUAAAGCUUCAUGCACUUUGUCCGAACAACUGGACUUUAUUGACACUAAGAGG [SHAPE_invitro_SARS-CoV-2_Multi_2_ComplexLevel_1] | -0.0693 | 0.844 | 0.756 | 0.899
CCUGAAUCUUGG [IAV_invivo_PB1_2_Motif_21+IAV_invivo_PB1_2_Motif_21] | -0.491 | -0.502 | -0.834 | -0.925
CCUGACUUAAAUGGUGAUGUGGUGGCUAUUGAUUAUAAACACUACACACCCUCUUUUAAGAAAGG | 0.00798 | -0.275 | -0.161 | -0.206
CCUGCACCACGCACAUUGCUAACUAAGG [SHAPE_invitro_SARS-CoV-2_Motif_318] | -0.173 | 0.0122 | -0.429 | -0.204
CCUGCCUGCCUGCCUG [r(CCUG)4] | 0.0557 | 0.703 | 0.588 | 0.872
CCUGGUCAUGCAGAUCUCAGUGCCAAGGAGGCACAGGAUGUAAUCAUGGAAGUUGUUUUCCCUAACGAAGUGGGAGCCAGG | -0.23 | 0.44 | -0.749 | -0.414
